Measured values published in patent US20090036368A1, “Therapeutic Combination” (HAMLET PHARMA AB, priority 2005, published 2009).
Numbering of substitutions follows the chain as printed. In names and notes the source's numbering stands.

B1: D87A: bovine α-lactalbumin mutant, aspartic acid at position 87 replaced by alanine (protein, UniProt P00711 20-142, looked up, variant D87A)
Alpha-lactalbumin: EQLTKCEVFRELKDLKGYGGVSLPEWVCTTFHTSGYDTQAIVQNNDSTEYGLFQINNKIWCKDDQNPHSSNICNISCDKFLDDDLTADIMCVKKILDKVGINYWLAHKALCSEKLDQWLCEKL
B2: D87N: bovine α-lactalbumin mutant, aspartic acid at position 87 replaced by asparagine (protein, UniProt P00711 20-142, looked up, variant D87N)
Alpha-lactalbumin: B1 Alpha-lactalbumin with A87N
B3: HAMLET (protein, UniProt P00709 20-142, looked up)
Alpha-lactalbumin: KQFTKCELSQLLKDIDGYGGIALPELICTMFHTSGYDTQAIVENNESTEYGLFQISNKLWCKSSQVPQSRNICDISCDKFLDDDITDDIMCAKKILDIKGIDYWLAHKALCTEKLEQWLCEKL
modifications: complex with oleic acid

Legend:
[1] = system: Jurkat cells; test: subG1 population / DNA fragmentation by flow cytometry after PI staining; format: cell-based; settings: for DNA fragmentation (sub G0/G1), substance alone: TSA 100 ng/ml or SAHA 2.5 μM
Experimental: Cell Cycle Analysis by cytometry—Cells were harvested, washed with PBS and then fixed in suspension in 75% cold ethanol at 4° C. for 2 hours at least. The samples were then centrifuged, washed with PBS, and treated with 0.25% triton X-100 for 10 minutes at room temperature. The cells were washed again, resuspended in 2.5 μg/ml of PI and 250 μg/ml Rnase A in PBS, and incubated at 4° C. overnight prior to measurement. Cellular fluorescence was measured using the Facscalibur flow cytometry (Becton Dickinson, San Jose, Calif.). The simple-cell populations were determinated on the basis of their fluorescence-intensity values FL2-A and FL2-W.
The effects of HAMLET on DNA fragmentation were compared between untreated cells and those pre-treated with TSA to increase acetylation. Sub G0/G1 DNA fragmentation was quantified by flow cytometry using the methodology as described in Example 1.
(§1) Cells in medium were used as controls.

[2] = viability by trypan blue exclusion (Vi-Cell XR); settings: human, Jurkat cells
Experimental: (§2) Jurkat cells were first pretreated with or without TSA 100 ng/ml during 3 or 18H and then treated by HAMLET during 3H. Viability was assessed by trypan blue exclusion using the Vi-Cell XR apparatus.
(§3) To examine if HDAC inhibitors might influence the effects of HAMLET on the viability of tumour cells, Jurkat cells were pretreated with HDAC inhibitors TSA 3 hours or 18 h and then exposed to HAMLET (FIG. 5). The cellular response to the combined treatment was compared to the response to TSA alone (3 h or 18 h) and to HAMLET (3 h). Cells in medium were used as controls. The cellular response was quantified by flow cytometry and the subG1 population was used as a measure of chromatin fragmentation and cell death (FIGS. 5 and 6A). In parallel, cell viability was assessed by ATP levels (FIG. 6B) and trypan blue exclusion (FIG. 6C).

[3] = system: acetyl histone H4 in Jurkat cells; test: acetyl histone H4 by flow cytometry; format: cell-based; settings: for histone acetylation (Example 5): TSA 3 hours or 18 h, HAMLET 3 h, total population
Experimental: Acetyl histone H4 and Cell Cycle Analysis by cytometry—Cells were harvested, washed with PBS and then fixed in suspension in 75% cold ethanol at 4° C. for 2 hours at least. The samples were then centrifuged, washed with PBS, and treated with 0.25% triton X-100 for 10 minutes at room temperature. After addition of 3 ml of PBS and centrifugation, the cells were incubated for at least 30 min in swine serum 1% (DAKO, Solna, Sweden) in PBS. After addition of 3 ml of PBS and centrifugation, the cells were incubated for 3 hours at room temperature in the presence of rabbit polyclonal anti-body to human acetyl Histone H4 (Upstate), diluted 1/500 containing 1% BSA. Cells were then washed and incubated with a FITC-conjugated swine anti-rabbit antibody (DAKO, Solna, Sweden) diluted 1/20 in PBS containing 1% BSA for 2 h. The cells were washed again, resuspended in 2.5 μg/ml of PI and 250 μg/ml Rnase A in PBS, and incubated at 4° C. overnight prior to measurement. The control was prepared identically as described above, except the presence of the histone antibody. Cellular fluorescence was measured using the Facscalibur flow cytometry (Becton Dickinson, San Jose, Calif.). The simple-cell populations were determined on the basis of their fluorescence-intensity values FL2-A and FL2-W. Then red and green emissions from each cell were separated and quantified using the standard optics of the cytometer.
The level of chromatin acetylation in Jurkat cells was quantified by flow cytometry, using specific antibodies to acetylated histone H4 (FIG. 1). To increase acetylation, the cells were treated with the HDAC inhibitor TSA (FIG. 1C, FIG. 1E line 3).
The inhibition of HDAC causes an accumulation of acetylated histones. The level of acetyl histone H4 in Jurkat cells was quantified by flow cytometry after staining with specific antibodies. The cells were counterstained with propidium iodide to visualize the change in chromatin levels. Results are presented as density plot diagrams representing the DNA content on the Y-axis between four populations of cells (Sub1, G1, S, and G2), and the degree of acetylation of Histone H4 on the X-axis.

[4] = system: A459 cells; test: subG1 DNA fragmentation by flow cytometry in A459 cells; format: cell-based; settings: TSA 100 ng/ml overnight, then HAMLET 30 μM one hour; data not shown
Experimental: In addition, non confluent A459 cells were treated with or without TSA 100 ng/ml overnight. Then HAMLET was added for one hour at 30 μM. As before, DNA fragmentation was followed both by flow cytometry. Following PI staining (cf. Materials and methods), subG1 populations were quantified and presented as percent of the total population.

[5] = system: HeLa cells expressing GFP-tagged Histone H4; test: acetyl histone H4 and nuclear morphology by confocal microscopy; format: cell-based; settings: TSA 100 ng/ml; vs control cells
Experimental: Acetyl histone H4 by confocal microscopy—Hela Cells were grown in Lab-Tek Chamber slides. Cells were washed twice in PBS, and then fixed 10 minutes in PBS formaldehyde 4%. The samples were then centrifuged, washed with PBS, and treated with 0.1% triton X-100 for 2 minutes at room temperature. After washes, cells were incubated for at least 30 min in swine serum 1% (DAKO, Solna, Sweden) in PBS. Then cells were incubated for 3 hours at room temperature in the presence of rabbit polyclonal antibody to human acetyl Histone H4 (Upstate), diluted 1/500 containing 1% BSA. Cells were then washed and incubated with an Alexa633-conjugated goat anti-rabbit antibody (Invitrogen) diluted 1/200 in PBS containing 1% BSA for 2 h. The cells were washed 3×5 min. in PBS prior to evaluation in an LSM 510 META confocal microscope (Carl Zeiss, Germany) with a 63× objective. The frequency of each chromatin patterns is shown in fold of control cells staining after counting a minimum of 30 cells in each experiment.
The effect of HAMLET and TSA on the acetylation of Histone H4 was further examined by confocal microscopy of adherent HeLa cells expressing GFP-tagged Histone H4. […] The acetylation level of histone H4 in the control cells was very weak (FIG. 9A).

[6] = biological activity of α-lactalbumin mutants in apo-conformation; settings: mutant proteins stable in apo-conformation at physiologic temperatures, without cofactor
[7] = bovine α-lactalbumin mutants, Permyakov et al. 2001; cited from earlier work
[8] = system: Jurkat cells; test: cell viability by ATP levels; format: cell-based; settings: 3 h exposure, vs control cells
Description: ATP monitoring reagent (AMR) was purchased from Cambrex (Wokingham, U.K.) in the form of a ViaLight™ HS kit and was reconstituted according to the manufacturers guidelines.
as §1

[9] = system: Jurkat cells; test: viability by trypan blue exclusion (Vi-Cell XR); settings: HAMLET 3 h, in comparison with control
Experimental: as §2, §3

[10] = system: tailless histones and DNA; test: nucleosome assembly from tailless histones and DNA; format: biochemical, Drosophila melanogaster; settings: radiolabelled 146 bp DNA fragments, gel
Experimental: FIG. 4. Effects of HAMLET on a mixture of tailless histones and DNA. HAMLET was added to a mixture of radiolabelled 146 bp DNA fragments and tailless histones. In the absence of HAMLET, no nucleosomes are formed (lane 1). […] Nucleosome assembly on the 146 bp fragment results in one single nucleosome species, designated N. At higher concentrations of HAMLET, more nucleosomes were formed and HAMLET associated with them to form a second band in the gel. HAMLET also dissolved the unspecific histone-DNA aggregated seen in the wells.
Histones—Native, folded histones were obtained from duck erythrocyte nuclei. Native or tailless Drosophila melanogaster histones were expressed in E. coli, purified and assembled into octamers. The fold and functional integrity of the histones were confirmed by nucleosome assembly on DNA.
Chromatin assembly—To generate nucleosomes, histone octamers (recombinant or purified from cells) were assembled on linear DNA according to the “salt jump” method (Stein, 1979). ^32P-labeled 256 bp fragments and carrier DNA (supercoiled plasmid DNA, final DNA concentration 200 μg/ml) were mixed with histones (histone:DNA weight ratio 0.4-0.6) in 2 M NaCl, 10 mM Tris-HCl (pH 7.5). The mixture was incubated for 10 min at 37° C., diluted to 0.5 M NaCl, incubated at the same temperature for 30 min, and dialyzed at 4° C. against 10 mM Tris-HCl (pH 7.5) and 1 mM EDTA for 2 h. […]

Molecule | DNA fragmentation (sub G0/G1), substance alone ([1]; HAMLET 1 hour) | histone acetylation (Example 5) [3] | acetylation of Histone H4 [5] | intensity of the GFP (histone H4) staining [5] | size of the nuclei [5] | biological activity [6] | calcium binding [7] | further results
CC(/C=C/C(=O)NO)=C\[C@@H](C)C(=O)c1ccc(N(C)C)cc1 [TSA, Trichostatin A] | did not stimulate DNA fragmentation | time dependent increase in histone acetylation | increase in the staining of the acetylation of histone H4 | slight increase | slight increase in the size of the nuclei | – | – | subG1 population ([1]; TSA alone, 18 h): 26.13%; HAMLET-induced DNA fragmentation after HDAC inhibitor pre-treatment ([1]; pre-treated with TSA 100 ng/ml or SAHA 2.5 μM for 2 hours, HAMLET 1 hour): enhanced HAMLET-induced DNA fragmentation; cytotoxicity at 18 h, 100 ng/ml [2]: 24.9%; time of maximal effect on acetylation ([3]; TSA treatment): two hours; acetylation of histone H4, increase vs control ([3]; increased concentration of TSA without HAMLET, intact cells (subG1 removed)): 2 fold; cell death (subG1) [4]: significantly increased cell death
O=C(CCCCCCC(=O)Nc1ccccc1)NO [SAHA, suberoylanilide hydroxamic acid] | did not trigger DNA fragmentation | – | – | – | – | – | – | –
B1 | – | – | – | – | – | biologically inactive | totally abolish calcium binding | –
B2 | – | – | – | – | – | biologically inactive | still bound calcium but with lower affinity | –
B3 | induce DNA fragmentation | did not change the degree of acetylation | increase in the acetylation of Histone H4 | increase of the intensity of the GFP staining | marked decrease in the size of the nuclei | – | – | subG1 population ([1]; HAMLET alone, 3 h): 14.58%; decrease in ATP levels ([8]; HAMLET 0.1 mg/ml): 9.2%; decrease in ATP levels ([8]; HAMLET 0.2 mg/ml): 41.17%; decrease in ATP levels ([8]; HAMLET 0.3 mg/ml): 85.71%; loss of viability by trypan blue exclusion [9]: 19.7%; histone H4 acetylation (Example 1) ([3]; low concentrations of HAMLET 1H, TSA 100 ng/ml 2H, vs medium control): decrease in histone H4 acetylation; effect on mixture of tailless histones and 146 bp DNA [10]: assembly of nucleosomes
